Assay results published in paper PMC3177201.

T1: Prp24 oRRM4 (Saccharomyces cerevisiae, UniProt P49960 292-400)
T1 sequence: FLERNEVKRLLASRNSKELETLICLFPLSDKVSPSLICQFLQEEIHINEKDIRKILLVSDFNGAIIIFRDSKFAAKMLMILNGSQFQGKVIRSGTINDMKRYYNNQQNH

B1: U2 nt 1-51, 5'-FITC (ssRNA)
RNA: ACGAAUCUCUUUGCCUUUUGGCUUAGAUCAAGUGUAGUAUCUGUUCUUUUC

Key:
Prp24 oRRM4 [1] = target: T1, Prp24 oRRM4; experiment: fluorescence anisotropy
Prp24 oRRM4 [2] = target: T1, Prp24 oRRM4; experiment: fluorescence anisotropy; remark: listed apart in the source

Binder | binding result (Prp24 oRRM4 [1]) | Kd (Prp24 oRRM4 [2])
B1 | binds | –
AGAGAUGAUCAGCAGUUCCCCUGCAUAAGGAUGAACCGUU (structured_RNA) [U6 nt 49-88, 5'-Cy5] | – | 3.1 µM
